{
  "source": "paper PMC4977500",
  "target": "RAIDD DD (UniProt P78560)",
  "sequence (P78560 94-199)": "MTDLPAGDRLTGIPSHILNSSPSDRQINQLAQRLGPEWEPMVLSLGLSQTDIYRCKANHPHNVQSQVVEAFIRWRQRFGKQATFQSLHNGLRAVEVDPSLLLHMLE",
  "assay": "native gel or EMSA; native-PAGE on a PhastSystem, 8-25% acrylamide gradient gels, Coomassie staining; complexes in 20 mM Tris pH 8.0, 50 mM NaCl; pre-incubated with or without peptide for 1 hour at room temperature; complex band without peptide taken as 100%",
  "data": [
    {"substance": "TAT-Y814A (previously generated TAT-fused PIDD peptide with the mutation Y814A)", "values": [
      {"measurement": "percent of RAIDD DD:PIDD DD complex formation blocked at 30 μM peptide", "result": 50, "unit": "%"}
    ]}
  ]
}
